For orientation: Kd means a measure of binding affinity in units of concentration.

Four molecules from paper PMC11102521 can be followed below.

This data set concerns the target Staphylococcal enterotoxin A (SEA) (UniProt P0A0L2 25-257). The data set is described as follows: […], Tris-HCl pH 7.4, 2.7 mM KCl, 1 mM CaCl2, 0.5 mM MgCl2; 30 min at 25 °C in 100 µL, […]. The note with it: protein: commercial; tags: biotinylated, immobilized on streptavidin magnetic beads.

Chain of Staphylococcal enterotoxin A (SEA) (P0A0L2 25-257): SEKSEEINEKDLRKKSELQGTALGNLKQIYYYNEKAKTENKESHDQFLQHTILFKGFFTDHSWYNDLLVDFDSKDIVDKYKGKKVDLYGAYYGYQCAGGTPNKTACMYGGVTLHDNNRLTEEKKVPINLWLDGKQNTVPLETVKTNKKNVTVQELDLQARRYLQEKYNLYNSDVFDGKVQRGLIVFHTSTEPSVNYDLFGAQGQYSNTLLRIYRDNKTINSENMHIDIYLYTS

B1: Apt4 (Aptamer_423283) (ssDNA)
DNA: AGGCCAACTGGATAGCGAATGTTAGTGGACTCGGTTTGGACGTTCTCTCTTCTCGAATGCGAATTCAGCACTACCTTTTGGCAAACGCTAATAAGGG
B1: the binding result is “binds”.

B2: Apt5 (Aptamer_253457) (ssDNA)
DNA: AGGCCAACTGGATAGCGAATTTGCAATCAGCGTGGGTGGGTTTCTTTTGCGTGGTGTGTCGAATTCAGCACTACCTTTTGGCAAACGCTAATAAGGG
As to B2, binding was put at a Kd of 0.0134 ± 0.00186 µM.

B3: Apt1 (Aptamer_301794) (ssDNA)
DNA: AGGCCAACTGGATAGCGAATAGAACTCTGCCGTGGGGTGCAGTTTTAATTGTACGTTCTCGAATTCAGCACTACCTTTTGGCAAACGCTAATAAGGG
Take B3: the binding result is listed as “binds”.

B4: Apt2 (Aptamer_207452) (ssDNA)
DNA: AGGCCAACTGGATAGCGAATGTGGCAGTCGGTTTTGACTTGCGCTCTTGCATCATTATTCGAATTCAGCACTACCTTTTGGCAAACGCTAATAAGGG
With B4, the binding result is given as “binds”.
